From US20190248902A1 (published 2019)

T1: Rat ASGR-1 (rat, UniProt P02706 1-284)
T1 construct: Expressed on HEK 293 cells or as membrane prep on beads; cDNA GenBank NM_012503
T1 sequence: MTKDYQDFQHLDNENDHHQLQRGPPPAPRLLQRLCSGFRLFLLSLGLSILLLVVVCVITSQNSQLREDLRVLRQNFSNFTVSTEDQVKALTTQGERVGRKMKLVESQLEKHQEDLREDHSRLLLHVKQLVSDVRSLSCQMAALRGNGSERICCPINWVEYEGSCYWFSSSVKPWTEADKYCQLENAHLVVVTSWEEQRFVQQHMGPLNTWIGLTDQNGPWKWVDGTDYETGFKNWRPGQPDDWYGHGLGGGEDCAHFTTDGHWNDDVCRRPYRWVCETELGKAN

T2: Dog ASGR-1 (dog)
T2 construct: Expressed on HEK 293 cells or as membrane prep on beads; cDNA GenBank XM_546579
T2 chain: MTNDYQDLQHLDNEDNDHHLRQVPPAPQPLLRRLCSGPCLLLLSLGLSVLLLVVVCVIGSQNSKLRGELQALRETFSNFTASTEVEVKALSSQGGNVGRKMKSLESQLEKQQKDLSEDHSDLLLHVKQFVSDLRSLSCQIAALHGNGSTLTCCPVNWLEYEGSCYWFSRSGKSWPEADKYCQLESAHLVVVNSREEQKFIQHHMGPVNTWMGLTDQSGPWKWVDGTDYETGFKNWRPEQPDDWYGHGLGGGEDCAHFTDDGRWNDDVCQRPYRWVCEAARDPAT

T3: Pig ASGR-1 (pig)
T3 construct: Expressed on HEK 293 cells or as membrane prep on beads; cDNA GenBank NM_001244458
T3 chain: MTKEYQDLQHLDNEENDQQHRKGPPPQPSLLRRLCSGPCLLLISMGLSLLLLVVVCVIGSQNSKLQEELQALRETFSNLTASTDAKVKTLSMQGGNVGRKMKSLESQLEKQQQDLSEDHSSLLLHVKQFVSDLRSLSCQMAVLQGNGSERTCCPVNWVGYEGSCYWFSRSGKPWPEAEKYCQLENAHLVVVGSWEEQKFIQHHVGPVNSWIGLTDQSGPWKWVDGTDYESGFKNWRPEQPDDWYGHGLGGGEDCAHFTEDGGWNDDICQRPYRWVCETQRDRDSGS

T4: Mouse ASGR-1 (mouse, UniProt P34927 1-284)
T4 construct: Expressed on HEK 293 cells or as membrane prep on beads; cDNA GenBank BC022106.1; also called muASGR-1; mASGR-1
T4 sequence: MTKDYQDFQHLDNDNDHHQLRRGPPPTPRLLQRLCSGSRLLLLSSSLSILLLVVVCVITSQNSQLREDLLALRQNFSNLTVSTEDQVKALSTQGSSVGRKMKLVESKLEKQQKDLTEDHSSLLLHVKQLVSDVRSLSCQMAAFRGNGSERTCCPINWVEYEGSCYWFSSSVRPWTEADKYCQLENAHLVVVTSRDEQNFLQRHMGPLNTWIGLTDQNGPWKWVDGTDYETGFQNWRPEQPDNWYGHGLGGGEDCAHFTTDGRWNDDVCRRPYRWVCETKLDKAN


Assays:
Rat ASGR-1 [1] = target: T1, Rat ASGR-1; assay: FACS on transfected HEK 293 cells or membrane preps on beads; Y = signal at least 2x irrelevant IgG
How it was run: (§1)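 Antibodies at normalized concentrations bound 1 h at 4° C to HEK 293 cells expressing each antigen, then Alexa Fluor 647 anti-Fc plus 7-AAD 15 min at 4° C, flow cytometry; empty-vector cells as negative. Alternatively, species ASGR-1 membrane preps on streptavidin beads, antibody 1 h RT, Alexa Fluor 488 anti-Fc; FACS buffer with 1 mM CaCl2 throughout.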

Dog ASGR-1 = target: T2, Dog ASGR-1; assay: as above
How it was run: as §1

Rat ASGR-1 [2] = target: T1, Rat ASGR-1; assay: FACS on transfected HEK 293 cells or membrane preps on beads; binding = signal at least 2x irrelevant IgG
How it was run: as §1

Pig ASGR-1 = target: T3, Pig ASGR-1; assay: as above
How it was run: as §1

Mouse ASGR-1 = target: T4, Mouse ASGR-1; assay: FACS on transfected HEK 293 cells or membrane preps on beads; Y = signal at least 2x irrelevant IgG
How it was run: as §1

| Binder | binding result (Rat ASGR-1 [1]) | binding result (Dog ASGR-1) | binding result (Rat ASGR-1 [2]) | binding result (Pig ASGR-1) | binding result (Mouse ASGR-1) |
| --- | --- | --- | --- | --- | --- |
| 54E9 (antibody, V domains shown, Tested as hybridoma supernatant at normalized concentration) VH: QVQLVQSGAEVKKPGASVKVSCKASGYTFNSYGISWVRLAPGQGLEWMGWISAYNGNTKNAQKLQGRVTMTTDTSTSTAYMELRSLRSDDTAVYYCARHDFWSGYYKGMDVWGQGTTVTVSS VL: not shown | – | binds | no binding | no binding | – |
| 29H8 (antibody, V domains shown, Tested as hybridoma supernatant at normalized concentration) VH: QVQLVQSGAEVQKPGASVKVSCKASGYTFTNYDINWVRQATGQGLEWMGWMNPNSGNTGYAQRFQGRVTMTRNTSISAAYMELSSLRSEDTAVYYCASSSGWYYFDYWGQGTLVTVSS VL: not shown | binds | – | – | – | – |
| 4A2 (antibody, V domains shown, Tested as hybridoma supernatant at normalized concentration) VH: QVQLVQSGTEVKKPGASVKVSCKASGYTFTNYDINWVRQATGQGLEWMGWMHPNSGNTGYAQKFQGRVTLTRNTSISTAYMELSSLRSEDTAVYYCASSSGWYYFDYWGQGTLVTVSS VL: DIVMTQSPDSLAVSLGERATINCKSSQSILHSSNNNNYLAWFQQKPGQPPKLLLYWASTRESGVPDRFSGSGSGTDFTLTISSLQPEDVAVYYCQQYYNTPVTFGPGTKVGIK | binds | – | – | – | – |
| 22G5 (antibody, V domains shown, Tested as hybridoma supernatant at normalized concentration) VH: EVQLLESGGGLVQPGGSLRLSCAASGFTFSSYAMNWVRQAPGMGLEWVSVISRSGGYTYYADSVKGRFTISRDNSKNTLYLQMNSLRAEDTAVYYCASRLAVAGSEAFDIWGQGTLVTVSS VL: DIQMTQSPSSLSASVGDRVTITCRASQNISSYLNWYQQKQGKAPKLLIYAASSLQNGVPSRFSGRGSGTDFTLTISSLQPEDFATYYCQQSYRTPLFTFGPGTKVDFK | – | – | no binding | no binding | – |
| 193E7 (antibody, V domains shown, Tested as hybridoma supernatant at normalized concentration) VH: QVQLQQWGAGLLKPSETLSLTCAVYGGSFSGYFWTWIRQPPGKGLEWIGEINHSGSTNYNPSLKSRVTISVDTSKNQFSLKLSSVTAADTAVYYCARDYGADYWGQGTLVAVSA VL: DIQMTQSPSSLSASVGDRVTITCRASQGIRNDLGWYQQKPGKAPKRLIYSASSLQRGVPSRFSGSGSGTEFTLTISSLQPEDFATYYCLQHKRYPLTFGGGTKVEIK | – | binds | no binding | no binding | – |
| 5E5 (antibody, V domains shown, Tested as hybridoma supernatant at normalized concentration) VH: QVQLVESGGGVVQPGRSLRLSCAASGFTFSNYVMHWVRQAPGKGLEWVAVIWYDGSNKYYADSVKGRFTISRDNSKNTLYLQMNSLRAEDTAVYYCTREVYSSGWYDYGMDVWGQGTTVTVSS VL: DIQMTQSPSSLSASVGDRVTITCRASQGIRNDLGWYQQKPGKAPKRLIYAASSLQSGVPSRFSGSGSGTEFTLTISSLQPEDFATYYCLQHYSYPRTFGQGTKVEVK | binds | – | – | no binding | – |
| 4H6 (antibody, V domains shown, Tested as hybridoma supernatant at normalized concentration) VH: QVQLVQSGAEVKKPGASVKVSCKASGYTFTDYYLHWVRQAPGQGLEWMGWIHPNSGGTNYAQKFQGRVTMTRDTSISTAYMGLSSLRSDDTAVYYCARDGTSSFDYWGQGTLVTVSS VL: DIQMTQSPSSVSASVGDRVTITCRASQGISRWLAWYQQKPGKAPKLLIYGASSLQSGVPSRFSGSGSGTDFTLTISSLQPEDFAIYYCQQANSFPFTFGPGTKVDIK | binds | – | – | – | binds |
| 72G9 (antibody, V domains shown, Tested as hybridoma supernatant at normalized concentration) VH: EVQLVESGGGLVKPGGSLRLSCAASGFTFSSYSMNWVRQAPGKGLEWVSSISGSSSYIYYADSVKGRFTISRDNAKNSLYLQMNSLRAEDTAVYFCARGGSRGFDPWGQGTLVTVSS VL: DIQMTQSPSSLSASVGDRVTITCRASQSITSYLNWYQQKPGKAPKLLIYTASSLQSGVPSRFSGSGSGTDFTLTISSLQPEDFATYYCQQSHSFPFTFGPGTKVDIK | binds | binds | – | – | binds |

Second part, the binder after the results:

| binding result (Rat ASGR-1 [1]) | binding result (Dog ASGR-1) | binding result (Rat ASGR-1 [2]) | binding result (Pig ASGR-1) | binding result (Mouse ASGR-1) | Binder |
| --- | --- | --- | --- | --- | --- |
| binds | binds | – | – | – | 194A4 (antibody, V domains shown, Tested as hybridoma supernatant at normalized concentration) VH: QVQLVQSGTEVKKPGASLKVSCKASGYTFTVYYLNWVRQAPGQGLEWMGWINPNSGGTNYAQKFQGRVTMTRDTSISTAYMELSRLRSDDTAVYYCARGYDILTGWGQGTLVTVSS VL: EIVLTQSPGTLSLSPGERATLSCRASRGVSNIYLAWYQQKPGQAPRLLIYGASNRATGIPDRFSGSGSGTDFTLTISRLEPEDFAVYYCQHNDYSMFTFGPGTKVDIK |
| binds | binds | – | – | binds | 4B1 (antibody, V domains shown, Tested as hybridoma supernatant at normalized concentration) VH: QVQLQESGPGLVKPSETLSLTCSVSGDSISSYSWSWIRQPAGKGLEWIGRIYTSGSTNYIPSLKSRITMSVDTSKKQFSLKLSSVTAADTAVYYCARDLKSSGCLFFDYWGQGTLVTVSS VL: DIQMTQSPSSLSASVGDRVTITCRASHTIRTYLNWYQQKPGKAPKLLIYAASSLQSGVPSRINGSGSGTDFTLTITNLQPEDFATYYCQQSYNISFTFGPGTKVDIK |
| binds | binds | – | – | binds | 12D2 (antibody, V domains shown, Tested as hybridoma supernatant at normalized concentration) VH: EVQLVESGGGLVKPGGSLRLSCAASGFTFSSYSMNWVRQAPGKGLEWVSSISSSSSYIYYADSVKGRFTISRDNAKNSLYLQMNSLRAEDTAVYYCARLGDYWGQGTLVAVSS VL: not shown |
| binds | binds | – | – | binds | 184E7 (antibody, V domains shown, Tested as hybridoma supernatant at normalized concentration) VH: QVQLVQSGAEVKTPGASVKVSCRASGYTFTSYNMHWVRQVPGQGLEWMGWINPNNGGSNYTQKFQGRVTMTRDTSISTAYMELSRLRSDDTAVYYCARKFGDWGQGTLVTVSS VL: DIQMTQSPSSRSASIGERVTITCRASQGISNYLAWIQQKPGTAPKSLIYAASSLQSGVSSRFSGSGFGTDFTITISSVQREDFATYYCQQYNGYPFTFGHGTKVDIK |
